Experiment [1] addresses TaSG-D1-GFP (wheat (Triticum aestivum)).
In experiment [2] the target is TaSG-D1^E286K-GFP (Indian dwarf wheat (Triticum sphaerococcum)).

In turn, TaPIF4-Myc (natural protein) gave a share of TaPIF4 associated with and protected by the kinase after 3 h heat stress: TaPIF4 protein still detectable on co-transformation in N. benthamiana leaves (23%) less that of the control (12%) in experiment [1] of 11%. Besides, the share of TaPIF4 associated with and protected by the kinase after 3 h heat stress: TaPIF4 protein still detectable on co-transformation in N. benthamiana leaves (88%) less that of the control (12%) in experiment [2] was found to be 76%.
